These results are taken from patent publication US9260754B2, “Connexin mutation detection for lymphatic variation and disease” (University of Pittsburgh—Of the Commonwealth System of …, priority 2010, dated 2016).

The assay has as its system HeLa cell pairs. Briefly: Dual whole cell patch clamp recording of coupling current in transfected HeLa cell pairs. Format: cell-based, human. Particulars: for elect coupling: Table 3 (Example 2); for elect coupling / electrical coupling: HeLa cell pairs, 100 mV step, mean ± SEM; for electrical coupling: Table 6 (Example 4); for electrical coupling / functional channels in HeLa cell pairs (in words): transfected HeLa cell pairs, voltage step protocol −100 to +100 mV. Here is the method:
Coupling currents were recorded using simultaneous double whole-cell patch clamp recordings from isolated pairs of cells that were in contact with one another (determined visually) as previously described. Briefly, the pipette solution consisted of (mM): 130 CsCl, 10 EGTA, 10 HEPES, 3 Mg-ATP, 2 Na-ATP, 0.5 CaCl2, pH 7.3. The culture was bathed in a solution consisting of (mM): 140 NaCl, 5 HEPES, 5 glucose, 4 KCl, 2 CsCl, 2 CaCl2, 2 pyruvate, 1 BaCl2, pH 7.3. Transfected HeLas undergo electrophysiologic analysis in a blinded manner. Pairs of cells were chosen for study only if both expressed the GFP marker indicative of successful transfections; both stable and transient transfectants were analyzed. Patch pipettes were fabricated from borosilicate glass, and coupling currents were amplified by Axopatch 200A amplifiers, filtered at 1 KHz, and digitized at 5 KHz for subsequent analysis using pClamp software (Axon Instruments/Molecular Devices; Sunnyvale, Calif.). All experiments were carried out at room temperature (22° C.). Coupling current was quantified by measuring the peak current recorded in the pair when the neighboring cell received a 100 mV step membrane potential change (in both positive and negative directions). Step changes in membrane potential were delivered to each cell in the pair in sequence and the average current recorded in the neighboring cell was determined and divided by 100 to generate coupling current expressed in pA/mV. Means±SEM were calculated and statistical significance using a one-way analysis of variance and Tukey's post-hoc test, p<0.05.
Coupling current is quantified by measuring the peak current recorded in the pair when the neighboring cell receives a 100 mV step membrane potential change (in both positive and negative directions). Step changes in membrane potential are delivered to each cell in the pair in sequence and the average current recorded in the neighboring cell determined and divided by 100 to generate coupling current expressed in pA/mV (FIG. 6C). Replicate measurements (n=3-6) are made on at least two different days. […] The untransfected HeLa cell pairs also show minimal channel function, as predicted.
Electrophysiologic characteristics of GJIC were measured between HeLa cell pairs transfected with the mutant constructs (as indicated by EGFP expression) by dual whole cell patch clamp recording. All experiments were carried out in a blinded manner. Coupling current is quantified by measuring the peak current recorded in the pair when the neighboring cell receives a 100 mV step membrane potential change (in both positive and negative directions). Step changes in membrane potential are delivered to each cell in the pair in sequence and the average current recorded in the neighboring cell determined and divided by 100 to generate coupling current expressed in pA/mV. Untransfected HeLa cells and cells transfected with empty vector (i.e., no hCx47) were used as additional controls.
(In general: The patch-clamp technique gives a direct electrical read-out from membranes.)

B1: G146S: Cx47 missense mutant G146S (436G>A), intracellular loop, construct expressed in HeLa cells or LECs (protein, listed as Homo sapiens)
chain: MSWSFLTRLLEEIHNHSTFVGKVWLTVLVVFRIVLTAVGGEAIYSDEQAKFTCNTRQPGCDNVCYDAFAPLSHVRFWVFQIVVISTPSVMYLGYAVHRLARASEQERRRALRRRPGPRRAPRAHLPPPHAGWPEPADLGEEEPMLSLGEEEEEEETGAAEGAGEEAEEAGAEEACTKAVGADGKAAGTPGPTGQHDGRRRIQREGLMRVYVAQLVARAAFEVAFLVGQYLLYGFEVRPFFPCSRQPCPHVVDCFVSRPTEKTVFLLVMYVVSCLCLLLNLCEMAHLGLGSAQDAVRGRRGPPASAPAPAPRPPPCAFPAAAAGLACPPDYSLVVRAAERARAHDQNLANLALQALRDGAAAGDRDRDSSPCVGLPAASRGPPRAGAPASRTGSATSAGTVGEQGRPGTHERPGAKPRAGSEKGSASSRDGKTTVWI
On to B1, for which the elect coupling is on record as 16.2 pA/mV, the electrical coupling was 32.4 pA/mV and the “electrical coupling / functional channels in HeLa cell pairs (in words)” value is “well coupled”.

B2: WT-hCx47: human wild type Cx47 construct in bicistronic pIRES2-EGFP vector, expressed in HeLa cells or LECs (protein, UniProt Q5T442 1-439, looked up)
Gap junction gamma-2 protein: MTNMSWSFLTRLLEEIHNHSTFVGKVWLTVLVVFRIVLTAVGGEAIYSDEQAKFTCNTRQPGCDNVCYDAFAPLSHVRFWVFQIVVISTPSVMYLGYAVHRLARASEQERRRALRRRPGPRRAPRAHLPPPHAGWPEPADLGEEEPMLGLGEEEEEEETGAAEGAGEEAEEAGAEEACTKAVGADGKAAGTPGPTGQHDGRRRIQREGLMRVYVAQLVARAAFEVAFLVGQYLLYGFEVRPFFPCSRQPCPHVVDCFVSRPTEKTVFLLVMYVVSCLCLLLNLCEMAHLGLGSAQDAVRGRRGPPASAPAPAPRPPPCAFPAAAAGLACPPDYSLVVRAAERARAHDQNLANLALQALRDGAAAGDRDRDSSPCVGLPAASRGPPRAGAPASRTGSATSAGTVGEQGRPGTHERPGAKPRAGSEKGSASSRDGKTTVWI
Consider B2, for which the elect coupling came to 31.6 pA/mV, the electrical coupling came out at 35.9 pA/mV and the “electrical coupling / functional channels in HeLa cell pairs (in words)” value is “show evidence of voltage-dependent gating”. Where the note is “listed as WT hCx47”, the “electrical coupling / functional channels in HeLa cell pairs (in words)” value is “well coupled”. Further, for the setting “listed as WT-hCX47-EGFP”, the “electrical coupling / functional channels in HeLa cell pairs (in words)” value is listed as “well coupled”.
